Consider 4 molecules from article PMC5021521, “Coordinated recruitment of Spir actin nucleators and myosin V motors to Rab11 vesicle membranes” (eLife, 2016).

Where a chain is given by its changes, count along the chain named. Names may count otherwise. Ends that are not written are not given here. * marks the point of attachment. 5FAM = O=C1OC2(c3ccc(O)cc3Oc3cc(O)ccc32)c2ccc(C(=O)*)cc21; Ahx = NCCCCCC(=O)O

Usually Kd stands for a measure of binding affinity in units of concentration.

For data set [1], the target named is GST-MyoVa-GTD. The data set is described as follows: Quantitative GST-pulldown, fluorescence spectroscopy, Spir-2-linker. It counts as binding, Mus musculus. As to conditions: 100 nM His6-mCherry-Spir-2-linker (aa 361–519); SPECS buffer (1x PBS, 50 mM NaCl), 20°C; depletion of mCherry fluorescence (ex 548 nm, em 610 nm); ± SEM, n = 4 experimental repeats; read-out: dissociation constant (Kd). The protocol:
(§1) For GST-pulldown assays, 50 µg of GST-fusion protein was coupled to GSH-Sepharose 4B beads (1:1 suspension) for 1 hr at 4°C on a rotating wheel. Beads were washed twice with pulldown buffer and subsequently incubated with 20 µg His6-mCherry-fusion peptides for 2 hr, 4°C on a rotating wheel. In order to identify the tripartite Spir-2:MyoVa:Rab11a complex, 65 µg GST-Spir-2-GTBM-SB-FYVE was coupled to beads. Subsequently, beads were incubated with 40 µg MyoVa-GTD and 35 µg Rab11a-Q70L simultaneously for 2 hr. Beads were washed four times with pulldown buffer and bound proteins were eluted by 1x Laemmli buffer and denatured at 95°C for 10 min. Pulled proteins were analyzed by immunoblotting.
GST-pulldown assays were performed as described above with increasing concentrations of GST-MyoVa/b-GTD fusion proteins and 100 nM His6-mCherry-Spir-2-linker peptide in SPECS buffer (1x PBS, 50 mM NaCl). Beads were pelleted and the supernatant was centrifuged for 10 min at 20,000 x g to remove potential debris that could disturb the fluorescence measurement. […] The concentration-dependent binding of MyoVa/b-GTD to the Spir-2-linker was determined by fluorospectrometric analysis using FluoroMax-4 Spectrofluorometer (Horiba Jobin Yvon, Bensheim, Germany). The mCherry red fluorescent protein was excited at 548 nm and the emission at 610 nm was recorded (emission maximum). […]

Data set [2] has as its system Spir-2:MyoVa:Rab11 tripartite complex. The data set is described as follows: Analytical gel filtration. It counts as binding, Homo sapiens. As to conditions: Superdex 200 10/30; 50 mM Tris pH 8.0, 150 mM NaCl, 2 mM MgCl2, 2 mM TCEP. The protocol: (§2) Complex formations were analyzed by analytical gel-filtration using Superdex 200 10/30 Increase column (GE Healthcare Life Sciences) and UV light absorbance at 280 nm and 260 nm and Visible light absorbance at 587 nm at flow rate of 0.75 ml/min in 50 mM Tris pH 8.0, 150 mM NaCl, 2 mM MgCl2, 2 mM TCEP buffer. Fractions of 500 µl were collected and analyzed by SDS-PAGE.
(§3) A 100 µl sample of His6-Rab11a-1-173-Q70L at 6 mg/ml, or of MyoVa-GTD at 5 mg/ml or of His6-mCherry-Spir-2-linker at 6 mg/ml were centrifuged at 10,000 x g for 10 min and injected into the column to monitor reference elution profiles of the individual proteins. The proteins were mixed pairwise to the same final concentrations and incubated 30 min at 4°C in a total volume of 100 µl. The two-component complexes (His6-mCherry-Spir-2-linker:MyoVa-GTD and MyoVa-GTD:His6-Rab11a-1-173-Q70L) were confirmed by the elution peak shifts and SDS-PAGE analysis. […] The tripartite His6-mCherry-Spir-2-linker:MyoVa-GTD:His6-Rab11a-1-173-Q70L complex was analyzed at the same concentration of the individual components and confirmed by SDS-PAGE.

Data set [3] has as its system GST-MyoVa-GTD. The data set is described as follows: GST-pulldown with purified proteins. The data set is classed as binding, Mus musculus. As to conditions: purified His6-mCherry-Spir-2-linker mutant L408A,L409A; N = 4. Here is the method: as §1
A further data set concerns GST-MyoVb-GTD. In words: GST-pulldown with purified proteins. The data set is classed as binding, Homo sapiens. As to conditions: purified His6-mCherry-Spir-2-linker mutant L408A,L409A; N = 4. The protocol: as §1
Data set [4] is described as follows: Analytical gel filtration, individual protein. The following applies: Figure 5—figure supplement 2. The data set is classed as physicochemical. Here is the method:
as §2, §3

Data set [5] concerns the target T1, MyoVc-GTD (human, aa 1350-1742) (human, UniProt Q9NQX4 1350-1742).
T1 chain: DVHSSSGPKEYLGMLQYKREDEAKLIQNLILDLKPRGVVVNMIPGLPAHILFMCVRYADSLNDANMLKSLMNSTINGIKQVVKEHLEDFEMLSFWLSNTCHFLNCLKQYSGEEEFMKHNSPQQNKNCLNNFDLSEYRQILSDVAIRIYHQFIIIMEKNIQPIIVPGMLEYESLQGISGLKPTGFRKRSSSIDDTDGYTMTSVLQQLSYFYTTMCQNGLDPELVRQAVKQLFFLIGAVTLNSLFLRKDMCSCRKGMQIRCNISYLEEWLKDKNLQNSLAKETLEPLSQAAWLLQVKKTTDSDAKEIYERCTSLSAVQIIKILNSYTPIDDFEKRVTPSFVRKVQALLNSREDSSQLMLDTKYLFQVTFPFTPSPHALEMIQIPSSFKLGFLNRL
In words: MST.

In data set [6] the target is T2, MyoVc-GTD (human, aa 1350-1742) (human, UniProt Q9NQX4 1350-1742).
T2 construct: myosin Vc globular tail domain, human, residues 1350-1742; also called hs-MyoVc-GTD; source: E. coli BL21(DE3) or BL21-CodonPlus-RILP, purified (HisTrap, rTEV, Superdex 200); not shown: His6, N-terminal, cleaved
T2 sequence (looked up): T1 chain
The data set is described as follows: MST; 500 nM fluorescein-Spir-2 peptide, MyoVc-GTD 97 uM to 2.96 nM; 21.5°C; 50 mM Tris pH 8.0, 250 mM NaCl, 2 mM MgCl2, 2 mM TCEP, 5% glycerol. As to conditions: both partners purified.

In data set [7] the target is T3, MyoVb-GTD (human, aa 1456-1848) (human, UniProt Q9ULV0 1456-1848).
T3 construct: myosin Vb globular tail domain, human, residues 1456-1848; Produced as in Pylypenko et al., 2013; also called hs-MyoVb-GTD; source: E. coli BL21(DE3) or BL21-CodonPlus-RILP, purified (HisTrap, rTEV, Superdex G200); not shown: His6, N-terminal, cleaved
T3 sequence (looked up): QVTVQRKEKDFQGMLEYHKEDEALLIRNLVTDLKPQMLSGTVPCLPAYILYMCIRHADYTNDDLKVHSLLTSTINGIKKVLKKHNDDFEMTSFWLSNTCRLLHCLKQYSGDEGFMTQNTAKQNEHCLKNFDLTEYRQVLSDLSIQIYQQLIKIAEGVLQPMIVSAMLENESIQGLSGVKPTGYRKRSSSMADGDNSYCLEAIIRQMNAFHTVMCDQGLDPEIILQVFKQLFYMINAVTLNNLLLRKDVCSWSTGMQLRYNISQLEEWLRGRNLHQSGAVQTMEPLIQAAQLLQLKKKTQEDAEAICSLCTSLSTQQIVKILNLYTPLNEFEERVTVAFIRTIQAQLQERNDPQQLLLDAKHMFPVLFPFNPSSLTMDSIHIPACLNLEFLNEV
In words: fluorescence polarisation; fluorescence anisotropy; 1 uM fluorescein-Spir-2-401-427 titrated with MyoVa-GTD or MyoVb-GTD (50 nM-5 uM); 25°C; 100 mM Tris-HCl pH 8.0, 150 mM NaCl, 2 mM MgCl2, 2 mM TCEP, 5% glycerol. The following applies: both partners purified. For orientation: Polarisation of emitted light reports the rotation of a fluorescent probe.

B1: mCherry-Spir2-linker: His6-mCherry-hs-Spir2-linker aa 361 - 519 (protein)
chain: GEGWAARGFGSLPCILNACSGDAKSTSCINLSVTDAGGSAQRPRPRVLLKAPTLAEMEEMNTSEEEESPCGEVTLKRDRSFSEHDLAQLRSEVASGLQSATHPPGGTEPPRPRAGSAHVWRPGSRDQGTCPASVSDPSHPLLSNRGSSGDRPEASMTPD
modifications: left off: His6, N-terminal, kept | mCherry, N-terminal, kept
As for B1, the dissociation constant (Kd) at GST-MyoVa-GTD [1] stood at 728 ± 113 nM. Besides, the “co-elution in gel filtration in words” value in data set [2] is reported as “co-elution of all three proteins”.

B2: Spir-2-linker-LALA: His6-mCherry-hs-Spir2-linker-L408A,L409A (protein)
chain: B1 chain with L48A, L49A
modifications: left off: His6, N-terminal, kept | mCherry, N-terminal, kept
notes: His6-mCherry-hs-Spir2-linker-L408A,L409A
With B2, in the data set on GST-MyoVa-GTD [3], the “binding to GST-MyoVa-GTD in words” value was “largely impairs binding”. The “binding to GST-MyoVb-GTD in words” value with GST-MyoVb-GTD is “largely impairs binding”.

B3: MyoVa-GTD: purified hs-MyoVa-GTD aa 1461 - 1853; in Figure 3E the label stands for AcGFP-mm-MyoVa-GTD donor alone (protein)
chain: IRPVNIPRKEKDFQGMLEYKKEDEQKLVKNLILELKPRGVAVNLIPGLPAYILFMCVRHADYLNDDQKVRSLLTSTINSIKKVLKKRGDDFETVSFWLSNTCRFLHCLKQYSGEEGFMKHNTSRQNEHCLTNFDLAEYRQVLSDLAIQIYQQLVRVLENILQPMIVSGMLEHETIQGVSGVKPTGLRKRTSSIADEGTYTLDSILRQLNSFHSVMCQHGMDPELIKQVVKQMFYIIGAITLNNLLLRKDMCSWSKGMQIRYNVSQLEEWLRDKNLMNSGAKETLEPLIQAAQLLQVKKKTDDDAEAICSMCNALTTAQIVKVLNLYTPVNEFEERVSVSFIRTIQMRLRDRKDSPQLLMDAKHIFPVTFPFNPSSLALETIQIPASLGLGFIS
modifications: left off: His6, N-terminal, cleaved
As for B3, the “co-elution in gel filtration in words” value in data set [2] is listed as “co-elution of all three proteins”. In addition, in data set [4], the “oligomeric state in solution” value was “monomeric in solution”.

B4: Fluorescein-Spir-2-GTBM peptide (peptide)
peptide: {5FAM-Ahx}-QRPRPRVLLKAPTLAEMEEMNTSEEEE
notes: also called Fluorescein-Spir2 peptide; fluorescein labeled Spir-2-401-427 peptide; source: synthetic peptide, bought: GenScript
Molecule B4 registered a Kd in data set [5] of 2880 nM. The binding result in data set [6] and in data set [7] was “binds” each time.
